Measured values published in the supplement of paper PMC11246515.
± gives the standard deviation of the averaged measurements.

Test: total protein half-life in vivo (active degradation + dilution); higher = more stable protein
[1] = E. coli NCM3722 delta-clpP delta-lon delta-hslV, growth: N-lim chemostat, doubling time 6 h
[2] = E. coli NCM3722 delta-clpP, growth: N-lim chemostat, doubling time 6 h
[3] = E. coli NCM3722 delta-hslV, growth: N-lim chemostat, doubling time 6 h
[4] = E. coli NCM3722 delta-lon, growth: N-lim chemostat, doubling time 6 h
[5] = E. coli NCM3722 delta-smpB, growth: N-lim chemostat, doubling time 6 h
[6] = wild type E. coli NCM3722, growth: C-lim chemostat, doubling time 3 h
[7] = wild type E. coli NCM3722, growth: C-lim chemostat, doubling time 6 h
[8] = wild type E. coli NCM3722, growth: C-lim chemostat, doubling time 12 h
[9] = wild type E. coli NCM3722, growth: N-lim chemostat, doubling time 6 h
[10] = wild type E. coli NCM3722, growth: N-lim chemostat, doubling time 12 h
[11] = wild type E. coli NCM3722, growth: P-lim chemostat, doubling time 6 h
[12] = wild type E. coli NCM3722, growth: P-lim chemostat, doubling time 12 h

Sequence	total protein half-life in vivo [1] [h]	total protein half-life in vivo [2] [h]	total protein half-life in vivo [3] [h]	total protein half-life in vivo [4] [h]	total protein half-life in vivo [5] [h]	total protein half-life in vivo [6] [h]	total protein half-life in vivo [7] [h]	total protein half-life in vivo [8] [h]	total protein half-life in vivo [9] [h]	total protein half-life in vivo [10] [h]	total protein half-life in vivo [11] [h]	total protein half-life in vivo [12] [h]
MNKTEFYADLNRDFNALMAGETSFLATLANTSALLYERLTDINWAGFYLLEDDTLVLGPFQGKIACVRIPVGRGVCGTAVARNQVQRIEDVHVFDGHIACDAASNSEIVLPLVVKNQIIGVLDIDSTVFGRFTDEDEQGLRQLVAQLEKVLATTDYKKFFASVAG	4.82 ± 0.66	4.43 ± 0.32	4 ± 0.26	4.523 ± 0.034	4.22 ± 0.21	3.22 ± 0.55	5.38 ± 0.12	11.8 ± 3.1	4.33 ± 0.57	7.72 ± 0.91	5.8 ± 0.83	9.9 ± 0.11
MNKTTEYIDAMPIAASEKAALPKTDIRAVHQALDAEHRTWAREDDSPQGSVKARLEQAWPDSLADGQLIKDDEGRDQLKAMPEAKRSSMFPDPWRTNPVGRFWDRLRGRDVTPRYLARLTKEEQESEQKWRTVGTIRRYILLILTLAQTVVATWYMKTILPYQGWALINPMDMVGQDLWVSFMQLLPYMLQTGILILFAVLFCWVSAGFWTALMGFLQLLIGRDKYSISASTVGDEPLNPEHRTALIMPICNEDVNRVFAGLRATWESVKATGNAKHFDVYILSDSYNPDICVAEQKAWMELIAEVGGEGQIFYRRRRRRVKRKSGNIDDFCRRWGSQYSYMVVLDADSVMTGDCLCGLVRLMEANPNAGIIQSSPKASGMDTLYARCQQFATRVYGPLFTAGLHFWQLGESHYWGHNAIIRVKPFIEHCALAPLPGEGSFAGSILSHDFVEAALMRRAGWGVWIAYDLPGSYEELPPNLLDELKRDRRWCHGNLMNFRLFLVKGMHPVHRAVFLTGVMSYLSAPLWFMFLALSTALQVVHALTEPQYFLQPRQLFPVWPQWRPELAIALFASTMVLLFLPKLLSILLIWCKGTKEYGGFWRVTLSLLLEVLFSVLLAPVRMLFHTVFVVSAFLGWEVVWNSPQRDDDSTSWGEAFKRHGSQLLLGLVWAVGMAWLDLRFLFWLAPIVFSLILSPFVSVISSRATVGLRTKRWKLFLIPEEYSPPQVLVDTDRFLEMNRQRSLDDGFMHAVFNPSFNALATAMATARHRASKVLEIARDRHVEQALNETPEKLNRDRRLVLLSDPVTMARLHFRVWNSPERYSSWVSYYEGIKLNPLALRKPDAASQ	6.7 ± 0.34	6.54 ± 0.33	6.46 ± 0.79	6.41 ± 0.39	5.99 ± 0.24	3.26 ± 0.39	6.45 ± 0.66		6.22 ± 0.42	13.4 ± 0.32	6.3 ± 0.32	13.3 ± 1.8
MNKVAQYYRELVASLSERLRNGERDIDALVEQARERVIKTGELTRTEVDELTRAVRRDLEEFAMSYEESLKEESDSVFMRVIKESLWQELADITDKTQLEWREVFQDLNHHGVYHSGEVVGLGNLVCEKCHFHLPIYTPEVLTLCPKCGHDQFQRRPFEP [P0AAT9]	5.96 ± 0.99	4.62 ± 0.043	4.74 ± 0.38	5.364 ± 0.034	4.05 ± 0.48	2.81 ± 0.34	4.632 ± 0.011	8.29 ± 0.47	3.87 ± 0.6	10.7 ± 3.1	5.95 ± 1.4	10.9 ± 0.48
MNKYWLSGIIFLAYGLASPAFSSETATLAINGRISPPTCSMAMVNGQPQQHCGQLTYNVDTRHLFSSPVKGVTTEVVVAGSDSKRRIVLNRYD	1.53				0.626 ± 0.25		0.465					
MNLHEYQAKQLFARYGLPAPVGYACTTPREAEEAASKIGAGPWVVKCQVHAGGRGKAGGVKVVNSKEDIRAFAENWLGKRLVTYQTDANGQPVNQILVEAATDIAKELYLGAVVDRSSRRVVFMASTEGGVEIEKVAEETPHLIHKVALDPLTGPMPYQGRELAFKLGLEGKLVQQFTKIFMGLATIFLERDLALIEINPLVITKQGDLICLDGKLGADGNALFRQPDLREMRDQSQEDPREAQAAQWELNYVALDGNIGCMVNGAGLAMGTMDIVKLHGGEPANFLDVGGGATKERVTEAFKIILSDDKVKAVLVNIFGGIVRCDLIADGIIGAVAEVGVNVPVVVRLEGNNAELGAKKLADSGLNIIAAKGLTDAAQQVVAAVEGK [P0A836]	4.73 ± 0.42	4.59 ± 0.34	4.45 ± 0.2	4.87 ± 0.23	4.18 ± 0.058	3.08 ± 0.061	5.79 ± 0.26	10.5 ± 1.7	4.46 ± 0.14	7.39 ± 0.36	5.95 ± 0.15	12.2 ± 1.2
MNLLIDNWIPVRPRNGGKVQIINLQSLYCSRDQWRLSLPRDDMELAALALLVCIGQIIAPAKDDVEFRHRIMNPLTEDEFQQLIAPWIDMFYLNHAEHPFMQTKGVKANDVTPMEKLLAGVSGATNCAFVNQPGQGEALCGGCTAIALFNQANQAPGFGGGFKSGLRGGTPVTTFVRGIDLRSTVLLNVLTLPRLQKQFPNESHTENQPTWIKPIKSNESIPASSIGFVRGLFWQPAHIELCDPIGIGKCSCCGQESNLRYTGFLKEKFTFTVNGLWPHPHSPCLVTVKKGEVEEKFLAFTTSAPSWTQISRVVVDKIIQNENGNRVAAVVNQFRNIAPQSPLELIMGGYRNNQASILERRHDVLMFNQGWQQYGNVINEIVTVGLGYKTALRKALYTFAEGFKNKDFKGAGVSVHETAERHFYRQSELLIPDVLANVNFSQADEVIADLRDKLHQLCEMLFNQSVAPYAHHPKLISTLALARATLYKHLRELKPQGGPSNG	5.99 ± 0.51				2.728 ± 0.0011		3.27	6.24			2.97	6.78 ± 1.8
MNLLKSLAAVSSMTMFSRVLGFARDAIVARIFGAGMATDAFFVAFKLPNLLRRIFAEGAFSQAFVPILAEYKSKQGEDATRVFVSYVSGLLTLALAVVTVAGMLAAPWVIMVTAPGFADTADKFALTSQLLKITFPYILLISLASLVGAILNTWNRFSIPAFAPTLLNISMIGFALFAAPYFNPPVLALAWAVTVGGVLQLVYQLPHLKKIGMLVLPRINFHDAGAMRVVKQMGPAILGVSVSQISLIINTIFASFLASGSVSWMYYADRLMEFPSGVLGVALGTILLPSLSKSFASGNHDEYNRLMDWGLRLCFLLALPSAVALGILSGPLTVSLFQYGKFTAFDALMTQRALIAYSVGLIGLIVVKVLAPGFYSRQDIKTPVKIAIVTLILTQLMNLAFIGPLKHAGLSLSIGLAACLNASLLYWQLRKQKIFTPQPGWMAFLLRLVVAVLVMSGVLLGMLHIMPEWSLGTMPWRLLRLMAVVLAGIAAYFAALAVLGFKVKEFARRTV [P0AF16]	6.51 ± 0.41	5.82 ± 0.39	5.87		6.21 ± 0.26	3.36		9.84		8.94 ± 1.4	5.63 ± 0.54	10.6 ± 0.34
MNLQHHFLIAMPALQDPIFRRSVVYICEHNTNGAMGIIVNKPLENLKIEGILEKLKITPEPRDESIRLDKPVMLGGPLAEDRGFILHTPPSNFASSIRISDNTVMTTSRDVLETLGTDKQPSDVLVALGYASWEKGQLEQEILDNAWLTAPADLNILFKTPIADRWREAAKLIGVDILTMPGVAGHA [P0A8W5]	4.47 ± 0.45	5.88 ± 1.8	4.32 ± 0.34	2.88 ± 0.18	4.027 ± 0.034	2.93 ± 0.32	5.38 ± 0.81	8.21 ± 0.33	4.39 ± 0.34	6.81 ± 0.54	5.075 ± 0.018	10.2 ± 2.2
MNLSLRRSTSALLASSLLLTIGRGATLPFMTIYLSRQYSLSVDLIGYAMTIALTIGVVFSLGFGILADKFDKKRYMLLAITAFASGFIAITLVNNVTLVVLFFALINCAYSVFATVLKAWFADNLSSTSKTKIFSINYTMLNIGWTIGPPLGTLLVMQSINLPFWLAAICSAFPMLFIQIWVKRSEKIIATETGSVWSPKVLLQDKALLWFTCSGFLASFVSGAFASCISQYVMVIADGDFAEKVVAVVLPVNAAMVVTLQYSVGRRLNPANIRALMTAGTLCFVIGLVGFIFSGNSLLLWGMSAAVFTVGEIIYAPGEYMLIDHIAPPEMKASYFSAQSLGWLGAAINPLVSGVVLTSLPPSSLFVILALVIIAAWVLMLKGIRARPWGQPALC						1.77						
MNLSTKQKQHLKGLAHPLKPVVLLGSNGLTEGVLAEIEQALEHHELIKVKIATEDRETKTLIVEAIVRETGACNVQVIGKTLVLYRPTKERKISLPR [P0AGK4]	7 ± 0.84	5.91 ± 0.59	6.12 ± 0.24	6.47 ± 0.075	5.7 ± 0.41	3.11 ± 0.53	5.73 ± 0.12	9.46 ± 1.2	4.83 ± 0.25	10.8 ± 2.1	4.88 ± 1.1	12.6 ± 3
MNLTLTRRLWMGFALMALLTLTSTLVGWYNLRFISQVEKDNTQALIPTMNMARQLSEASAWELFAAQNLTSADNEKMWQAQGRMLTAQSLKINALLQALREQGFDTTAIEQQEQEISRSLRQQGELVGQRLQLRQQQQQLSQQIVAAADEIARLAQGQANNATTSAGATQAGIYDLIEQDQRQAAESALDRLIDIDLEYVNQMNELRLSALRVQQMVMNLGLEQIQKNAPTLEKQLNNAVKILQRRQIRIEDPGVRAQVATTLTTVSQYSDLLALYQQDSEISNHLQTLAQNNIAQFAQFSSEVSQLVDTIELRNQHGLAHLEKASARGQYSLLLLGMVSLCALILILWRVVYRSVTRPLAEQTQALQRLLDGDIDSPFPETAGVRELDTIGRLMDAFRSNVHALNRHREQLAAQVKARTAELQELVIEHRQARAEAEKASQAKSAFLAAMSHEIRTPLYGILGTAQLLADNPALNAQRDDLRAITDSGESLLTILNDILDYSAIEAGGKNVSVSDEPFEPRPLLESTLQLMSGRVKGRPIRLATAIADDMPCALMGDPRRIRQVITNLLSNALRFTDEGYIILRSRTDGEQWLVEVEDSGCGIDPAKLAEIFQPFVQVSGKRGGTGLGLTISSRLAQAMGGELSATSTPEVGSCFCLRLPLRVATAPVPKTVNQAVRLDGLRLLLIEDNPLTQRITIEMLKTSGAQIVAVGNAAQALETLQNSEPFAAALVDFDLPDIDGITLARQLAQQYPSLVLIGFSAHVIDETLRQRTSSLFRGIIPKPVPREVLGQLLAHYLQLQVNNDQSLDVSQLNEDAQLMGTEKIHEWLVLFTQHALPLLDEIDIARASQDSEKIKRAAHQLKSSCSSLGMHIASQLCAQLEQQPLSAPLPHEEITRSVAALEAWLHKKDLNAI	3.75	4.08		4.54 ± 0.12	4.12 ± 0.42	2.81		6.76	5.462 ± 0.037	> 16	6.79 ± 1.1	10.3 ± 0.94
MNLWQQNYDPAGNIWLSSLIASLPILFFFFALIKLKLKGYVAASWTVAIALAVALLFYKMPVANALASVVYGFFYGLWPIAWIIIAAVFVYKISVKTGQFDIIRSSILSITPDQRLQMLIVGFCFGAFLEGAAGFGAPVAITAALLVGLGFKPLYAAGLCLIVNTAPVAFGAMGIPILVAGQVTGIDSFEIGQMVGRQLPFMTIIVLFWIMAIMDGWRGIKETWPAVVVAGGSFAIAQYLSSNFIGPELPDIISSLVSLLCLTLFLKRWQPVRVFRFGDLGASQVDMTLAHTGYTAGQVLRAWTPFLFLTATVTLWSIPPFKALFASGGALYEWVINIPVPYLDKLVARMPPVVSEATAYAAVFKFDWFSATGTAILFAALLSIVWLKMKPSDAISTFGSTLKELALPIYSIGMVLAFAFISNYSGLSSTLALALAHTGHAFTFFSPFLGWLGVFLTGSDTSSNALFAALQATAAQQIGVSDLLLVAANTTGGVTGKMISPQSIAIACAAVGLVGKESDLFRFTVKHSLIFTCIVGVITTLQAYVLTWMIP						1.79	1.93	2.6 ± 0.12				
MNMKKLATLVSAVALSATVSANAMAKDTIALVVSTLNNPFFVSLKDGAQKEADKLGYNLVVLDSQNNPAKELANVQDLTVRGTKILLINPTDSDAVGNAVKMANQANIPVITLDRQATKGEVVSHIASDNVLGGKIAGDYIAKKAGEGAKVIELQGIAGTSAARERGEGFQQAVAAHKFNVLASQPADFDRIKGLNVMQNLLTAHPDVQAVFAQNDEMALGALRALQTAGKSDVMVVGFDGTPDGEKAVNDGKLAATIAQLPDQIGAKGVETADKVLKGEKVQAKYPVDLKLVVKQ	3.56 ± 0.29	5.92 ± 0.94		6.39 ± 0.68	6.26 ± 0.56	3.27 ± 0.035	6.14 ± 1.1	9.24 ± 0.57	6.13 ± 0.6	10.9 ± 0.88	6.05 ± 0.068	11.5 ± 0.92
